Kd data for one molecule are collected here from article PMC6535718 (2019).

The target of the assay is T1, Bfd (Pseudomonas aeruginosa, UniProt Q9HY80).
T1 chain: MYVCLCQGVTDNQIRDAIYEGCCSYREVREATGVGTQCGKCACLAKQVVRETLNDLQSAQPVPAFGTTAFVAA
Description: SPR. (In general: Surface plasmon resonance follows binding to a sensor surface in real time, without labels.)

B1: BfrB (protein)
chain: not shown
modifications: apo-BfrB (heme-free)
B1 came in with a Kd of 3.1 µM.

For orientation: Kd means the equilibrium constant for the complex coming apart. Low readings indicate a tighter complex, high ones a looser complex.
